# Measured values taken from patent US12391751B2, “Antibody against advanced glycation end products and use thereof” (Bloom Technology Corporation, priority 2018, dated 2025).
# B1: SJ-5: mouse monoclonal antibody raised against GAL13-MSA; heavy-chain variable region SEQ ID NO 4, light-chain variable region SEQ ID NO 8 (antibody, listed as Mus musculus, V domains shown)
# VH: EVMLVESGGRLVKPGGSLKLSCAASGFTFSSYGMSWVRQTPEKRLEWVATISGGGSYTYYPDSVKGRFTISRDNVKNNLYLQMSSLRSEDTALYYCARRGAYGDYGWFAYWGQGTLVTVSA
# VL: DIVLTQSPATLSVTPGDSVSLSCRASQSINNNLHWYQQKSHESPRLLIKCASQSISGIPSRFSGSGSGTDFTLSINSVETEDFGMYFCQQSNSWPLTFGAGTKLELK
# Experiments:
# [1] = target: GO-AGEs-BSA (Bos taurus, UniProt P02769); experiment: Specificity of SJ-5 by competitive ELISA (Example 7); format: binding; details: GAL13-BSA or Glycer-AGEs-BSA immobilized, POD-labeled SJ-5 0.4 μg/mL
# GO-AGEs-BSA, sequence (P02769 25-607): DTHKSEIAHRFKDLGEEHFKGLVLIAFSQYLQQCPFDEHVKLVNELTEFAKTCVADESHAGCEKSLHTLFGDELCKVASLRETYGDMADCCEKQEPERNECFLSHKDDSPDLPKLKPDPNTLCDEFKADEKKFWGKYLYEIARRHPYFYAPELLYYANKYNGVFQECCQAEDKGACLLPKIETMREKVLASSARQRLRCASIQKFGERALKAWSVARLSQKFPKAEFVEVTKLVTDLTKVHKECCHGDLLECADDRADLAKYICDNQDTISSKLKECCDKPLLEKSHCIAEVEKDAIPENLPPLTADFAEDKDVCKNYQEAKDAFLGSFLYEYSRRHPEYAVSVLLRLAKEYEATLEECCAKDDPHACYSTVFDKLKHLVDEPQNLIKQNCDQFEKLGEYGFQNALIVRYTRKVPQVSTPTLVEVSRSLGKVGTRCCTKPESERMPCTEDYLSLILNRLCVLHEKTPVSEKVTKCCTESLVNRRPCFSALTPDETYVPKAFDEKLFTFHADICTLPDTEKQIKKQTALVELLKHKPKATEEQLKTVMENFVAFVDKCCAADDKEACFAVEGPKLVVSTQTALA
# Experimental: (§1) GAL13-BSA or Glycer-AGEs-BSA prepared into 1 μg/mL with PBS (pH 7.4) was added as an immobilized antigen at 100 μL/well to a 96-well microtiter plate (NUNC) and left at 25° C. for 1 hour. The antigen was immobilized overnight at 4° C. The plate was washed three times with PBS containing 0.05% (v/v) Tween 20 (PBS-T) and then blocked with a carbonate buffer solution (pH 9.5) containing 0.5% (w/v) gelatin for 1 hour. A POD-labeled SJ-5 antibody (0.4 μg/mL) was prepared under the same conditions as in Example 6. In order to confirm specificity, BSA containing AGEs derived from glucose (Glu-AGEs-BSA), BSA containing AGEs derived from glycolaldehyde (Glycol-AGEs-BSA), BSA containing AGEs derived from methylglyoxal (MGO-AGEs-BSA), BSA containing AGEs derived from glyoxal (GO-AGEs-BSA), BSA containing N^ε-carboxymethyllysine (CML-BSA), BSA containing N^ε-carboxyethyllysine (CEL-BSA), and bovine serum albumin (BSA) were added at 50 μL/well to the antigen-immobilized plate in the same way as above, and the POD-labeled SJ-5 antibody (50 μL) was further added thereto, and stirred with a plate mixer, and then left standing at room temperature for 1 hour. After washing, an o-phenylenediamine solution (100 μL) prepared into 0.5 mg/mL with a 0.1 M citrate-phosphate buffer solution (pH 5.0) containing 0.02% (w/v) hydrogen peroxide was added to each well and left standing at 25° C. for 10 minutes. Then, color reaction was terminated by the addition of a 1 M sulfuric acid solution (50 μL) to each well. Then, absorbance at 490 nm was measured with a microplate reader.
# [2] = target: MGO-AGEs-BSA (Bos taurus, UniProt P02769); experiment: as above; format: binding; details: GAL13-BSA or Glycer-AGEs-BSA immobilized, POD-labeled SJ-5 0.4 μg/mL
# MGO-AGEs-BSA, sequence (P02769 25-607): as above
# Experimental: as §1
# [3] = target: CML-BSA (Bos taurus, UniProt P02769); experiment: as above; format: binding; details: GAL13-BSA or Glycer-AGEs-BSA immobilized, POD-labeled SJ-5 0.4 μg/mL
# CML-BSA, sequence (P02769 25-607): as above
# Experimental: as §1
# [4] = target: CEL-BSA (Bos taurus, UniProt P02769); experiment: as above; format: binding; details: GAL13-BSA or Glycer-AGEs-BSA immobilized, POD-labeled SJ-5 0.4 μg/mL
# CEL-BSA, sequence (P02769 25-607): as above
# Experimental: as §1
# [5] = target: Glycol-AGEs-BSA (Bos taurus, UniProt P02769); experiment: as above; format: binding; details: GAL13-BSA or Glycer-AGEs-BSA immobilized, POD-labeled SJ-5 0.4 μg/mL
# Glycol-AGEs-BSA, sequence (P02769 25-607): as above
# Experimental: as §1
# [6] = target: Glycer-AGEs-BSA (Bos taurus, UniProt P02769); experiment: as above; format: binding; details: GAL13-BSA or Glycer-AGEs-BSA immobilized, POD-labeled SJ-5 0.4 μg/mL
# Glycer-AGEs-BSA, sequence (P02769 25-607): as above
# Experimental: as §1
# [7] = target: Glu-AGEs-BSA (Bos taurus, UniProt P02769); experiment: as above; format: binding; details: GAL13-BSA or Glycer-AGEs-BSA immobilized, POD-labeled SJ-5 0.4 μg/mL
# Glu-AGEs-BSA, sequence (P02769 25-607): as above
# Experimental: as §1
# [8] = system: HUVEC (human umbilical vein endothelial cells); experiment: Neutralization test of vascular endothelial cell lumen formation inhibition (Example 14); format: cell-based; details: antibody pre-reacted with Glycer-AGEs-BSA; HUVEC, 8 hours
# Experimental: Matrigel matrix (Corning Inc.) was placed in a refrigerator and thawed overnight. The thawed Matrigel matrix was added at 300 μL/well to a 12-well plate (Corning Inc.) and hardened by still standing at 37° C. for 1 hour in a CO2 incubator (ESPEC Corp.).
# 10 μL of Glycer-AGEs-BSA (10 mg/mL) prepared in Example 1 or 10 μL of control BSA (10 mg/mL), phosphate-buffered saline (PBS, FUJIFILM Wako Pure Chemical Corp.), and 90 μL of SJ-5 (10 mg/mL) or a control antibody (10 mg/mL) were added to a 1.5 mL tube (Watson) and left standing at room temperature for 10 minutes. Then, a supernatant was recovered by centrifugation at 14000 rpm for 15 minutes using a centrifuge (Thermo Fisher Scientific Inc.).
# HUVEC (human umbilical vein endothelial cells, National Institutes of Biomedical Innovation, Health and Nutrition, JCRB cell bank) was cultured in a 10 cm dish (Corning Inc.) using 10 mL of a medium for HUVEC (KAC Co., Ltd.).
# The cultured HUVEC was washed with 10 mL of PBS. Then, 1 mL of trypsin-EDTA (FUJIFILM Wako Pure Chemical Corp.) was added thereto and left standing at room temperature for 3 minutes. […]
# After the centrifugation, the supernatant was discarded, and precipitated cells were resuspended by the addition of 1 mL of a medium for HUVEC. […] Then, the number of live cells was counted in Auto Cell Counter EVE (NanoEnTek Inc.). […]
# [9] = target: T1, GAL13-BSA (Bos taurus, UniProt P02769); experiment: Dissociation constant measurement, Biacore T200 (Example 8); format: binding; details: Biacore T200, sensor chip CM5; ligand GAL13-BSA
# T1 construct: purchased Sigma-Aldrich Co. LLC
# T1 sequence (P02769 25-607): as above
# Experimental: The dissociation constant (Kd value) of the monoclonal antibody SJ-5 was measured by the following approach: BSA containing AGEs derived from glyceraldehyde (Glycer-AGEs-BSA) was diluted with a 10 mM sodium acetate solution (pH 4.0) to prepare a ligand solution with a final concentration of 100 μg/mL. Biacore T200 (GE Healthcare Japan Corp.) was used for the immobilization of the ligand and the calculation of the KD value. The ligand solution was immobilized onto sensor chip CM5 (GE Healthcare Japan Corp.) using an amine coupling kit (GE Healthcare Japan Corp.). Subsequently, antibody dilution solutions containing the monoclonal antibody diluted into concentrations from 0 to 400 nM were prepared, and the Kd value was calculated.
# BSA chemically bonded to the peak obtained in fractionation by HPLC (GAL13-BSA) was diluted with a 10 mM sodium acetate solution (pH 5.0) to prepare a ligand solution with a final concentration of 25 μg/mL.
molecule,measurement,setting,value
B1,specificity: reactivity with GO-AGEs-BSA,[1],negative
same,specificity: reactivity with MGO-AGEs-BSA,[2],negative
same,specificity: reactivity with CML-BSA,[3],negative
same,specificity: reactivity with CEL-BSA,[4],negative
same,specificity: reactivity with Glycol-AGEs-BSA,[5],positive
same,specificity: reactivity with Glycer-AGEs-BSA,[6],positive
same,specificity: reactivity with Glu-AGEs-BSA,[7],negative
same,neutralization of lumen formation inhibition by Glycer-AGEs-BSA,[8],neutralized
same,Kd,[9],87.5 nM
